From the Human Domainome abundance scans (Beltran et al. 2025)
± gives the uncertainty stated by the source.

B1: POU domain, class 6, transcription factor 2, residues 609 to 663; numbered along this chain, P78424 (parent)
chain: KRRTSFTPQALEILNAHFEKNTHPSGQEMTEIAEKLNYDREVVRVWFCNKRQALK

Variants of: B1
Experiment: abundance fitness (aPCA) (normalised: wild type 0, dead -1); higher = more abundant; growth selection in yeast, the domain comes from the species named
Conditions: Homo sapiens

| Variant | abundance fitness |
| --- | --- |
| KRRTSFTIQALEILNAHFEKNTHPSGQEMTEIAEKLNYDREVVRVWFCNKRQALK [P8I] | -0.189 ± 0.24 |
| KRRTSFTSQALEILNAHFEKNTHPSGQEMTEIAEKLNYDREVVRVWFCNKRQALK [P8S] | 0.05 ± 0.13 |
| KRRTSFTWQALEILNAHFEKNTHPSGQEMTEIAEKLNYDREVVRVWFCNKRQALK [P8W] | -0.394 ± 0.13 |
| KRRTSFTQQALEILNAHFEKNTHPSGQEMTEIAEKLNYDREVVRVWFCNKRQALK [P8Q] | -0.365 ± 0.17 |
| KRRTSFTPQALEILNAHFEKNTHPSGQEMTEIAEKLNYDRIVVRVWFCNKRQALK [E41I] | -0.504 ± 0.18 |
| KRRTSFTPQALEILNAHFEKNTHPSGQEMTEWAEKLNYDREVVRVWFCNKRQALK [I32W] | -0.742 ± 0.24 |
| KRRTSFTPQALEILNAHFEKNTHPSGQEMTEIAEKLNYDREVVRVWFCNKRQAAK [L54A] | -0.002 ± 0.14 |
| KRRTSFTPQALEILNAHFEKNTHPSGQEMTEIAEKLNYDREVVRVWFCNKRQAQK [L54Q] | -0.175 ± 0.34 |
| KRRTSFTPQALEILNAHFEKNTHPSGQEMKEIAEKLNYDREVVRVWFCNKRQALK [T30K] | -0.176 ± 0.33 |
| KRRTSFTPQALEILNAHFEKNTHPSGQEMLEIAEKLNYDREVVRVWFCNKRQALK [T30L] | -0.216 ± 0.19 |
| KRRTSFTPQALEILNAHFEKNTHPSGQEMTMIAEKLNYDREVVRVWFCNKRQALK [E31M] | 0.061 ± 0.19 |
| KRRTSFTPQADEILNAHFEKNTHPSGQEMTEIAEKLNYDREVVRVWFCNKRQALK [L11D] | -0.622 ± 0.25 |
| KRRTSFTPQAGEILNAHFEKNTHPSGQEMTEIAEKLNYDREVVRVWFCNKRQALK [L11G] | -0.477 ± 0.075 |
| KRRTSFTPQALEILNAHFEKNTHPQGQEMTEIAEKLNYDREVVRVWFCNKRQALK [S25Q] | -0.313 ± 0.25 |
| KRRTSFTPQALEILNAHFEKNTHPGGQEMTEIAEKLNYDREVVRVWFCNKRQALK [S25G] | -0.051 ± 0.098 |
| KRRTSFTPQALEILNAHFEKNTHPSGQEMTEIAEKLNYDREVVEVWFCNKRQALK [R44E] | 0.027 ± 0.1 |
| KRRTSFTPQALEILNAHFEKNTHPSGQEMTEIAEKLNYDREVVTVWFCNKRQALK [R44T] | 0.018 ± 0.1 |
| KRRTSFTPQALEILNAHFEKNTHPSGQEMTEIAEKLNYDREVVYVWFCNKRQALK [R44Y] | 0.062 ± 0.13 |
| KRRTSFTPQALEILNAHFEKNTHPSGQEMTEIDEKLNYDREVVRVWFCNKRQALK [A33D] | -0.669 ± 0.28 |
| KRRTSFTPQALEILNAHFEKNTHPSGQEMTEIMEKLNYDREVVRVWFCNKRQALK [A33M] | -0.477 ± 0.27 |
| KRRTSFTPQALEILNAHFEKNTHPSGQEMTEIAEKLNYDFEVVRVWFCNKRQALK [R40F] | 0.041 ± 0.088 |
| KRRTSFTPQALESLNAHFEKNTHPSGQEMTEIAEKLNYDREVVRVWFCNKRQALK [I13S] | -0.279 ± 0.14 |
| KRRTSFTPQALEILNAHFEKNTHPSGQEMTEIAEKSNYDREVVRVWFCNKRQALK [L36S] | -0.6 ± 0.21 |
| KRRTSFTPQALEILNAHFEKNTHPSGQEMTEIAEKVNYDREVVRVWFCNKRQALK [L36V] | -0.003 ± 0.14 |

| Variant | abundance fitness |
| --- | --- |
| KRRTSFTPQALEILNAHFEKLTHPSGQEMTEIAEKLNYDREVVRVWFCNKRQALK [N21L] | -0.551 ± 0.071 |
| KRRTSFTPQALEILNAHFEKMTHPSGQEMTEIAEKLNYDREVVRVWFCNKRQALK [N21M] | -0.421 ± 0.14 |
| KRRTSFTPQALEILNAHFEKVTHPSGQEMTEIAEKLNYDREVVRVWFCNKRQALK [N21V] | -0.335 ± 0.068 |
| KRRTSFTPQALEILNAHFLKNTHPSGQEMTEIAEKLNYDREVVRVWFCNKRQALK [E19L] | -0.057 ± 0.077 |
| KRMTSFTPQALEILNAHFEKNTHPSGQEMTEIAEKLNYDREVVRVWFCNKRQALK [R3M] | 0.01 ± 0.1 |
| KRRTSFTPQALEILNAHFEKNMHPSGQEMTEIAEKLNYDREVVRVWFCNKRQALK [T22M] | -0.022 ± 0.13 |
| KRRTSFTPQALEILNAHFEKNSHPSGQEMTEIAEKLNYDREVVRVWFCNKRQALK [T22S] | 0.003 ± 0.073 |
| KRRTSFTPQALEILNAHFEKNTHYSGQEMTEIAEKLNYDREVVRVWFCNKRQALK [P24Y] | -0.805 ± 0.15 |
| KRRTSFTPQALEILNAHFEKNTHFSGQEMTEIAEKLNYDREVVRVWFCNKRQALK [P24F] | -0.916 ± 0.14 |
| KRRTSFTPQALEILNAHFEKNTHPSGQEMTEIAEKLNYDREVVRVWFCGKRQALK [N49G] | -0.13 ± 0.11 |
| KRRTSFTPQALEILNAHFEKNTHPSGQYMTEIAEKLNYDREVVRVWFCNKRQALK [E28Y] | -0.113 ± 0.3 |
| KRRTSFTPQALEILNAHFEKNTHPSGQQMTEIAEKLNYDREVVRVWFCNKRQALK [E28Q] | -0.171 ± 0.29 |
| KRRTSFTPQGLEILNAHFEKNTHPSGQEMTEIAEKLNYDREVVRVWFCNKRQALK [A10G] | -0.087 ± 0.12 |
| KRRTSFTPQALEILNAHFEKNTHPSGQEMTEIAEKLNYDREVVRVWFCNKPQALK [R51P] | -0.636 ± 0.15 |
| KRRTSFTPQALEILNAHFEKNTHPSGQEMTEIAEKLNYDREVVRVWFCNKAQALK [R51A] | -0.094 ± 0.11 |
| KRRTSFTPQALEILNAHFEKNTHPSGQEMTEIADKLNYDREVVRVWFCNKRQALK [E34D] | -0.428 ± 0.23 |
| KRRTSFTPQALEILNAHFEKNTHPSGQEMTEIARKLNYDREVVRVWFCNKRQALK [E34R] | -0.237 ± 0.2 |
| KRRTSFTPQALEILNAHFEKNTHPSGQEMTEIAEKLNYDREVVRVEFCNKRQALK [W46E] | -0.91 ± 0.21 |
| KRRTSFTPQALEILNAHFEKNTHPSGQEMTEIAEKLNYDREVVRVPFCNKRQALK [W46P] | -0.801 ± 0.26 |
| KRRTSFTPQALEILNAHFEKNTHPSKQEMTEIAEKLNYDREVVRVWFCNKRQALK [G26K] | -0.114 ± 0.14 |
| KRRTSFTPQALEILNAHFEKNTHPSGWEMTEIAEKLNYDREVVRVWFCNKRQALK [Q27W] | -0.142 ± 0.086 |
| KRRTSFTPQALEILNAHFEKNTHPSGREMTEIAEKLNYDREVVRVWFCNKRQALK [Q27R] | 0.012 ± 0.068 |
| KRRTSFTPQALEILNAHFEKNTHPSGQEMTEIAEKLNYDREVVRVWFCNKRQWLK [A53W] | -0.089 ± 0.14 |
| KRRTSFTPQALEILNAHFEKNTHPSGQEMTEIAEKLNYDREVVRVWFCNKRQELK [A53E] | -0.105 ± 0.27 |
